# Data published in US20200010542A1 (MorphoSys, published 2020).
# Experiments:
# human IL-17C [1] = biological target: T1, human IL-17C (human, UniProt Q9P0M4 19-197); experiment: cell-based or functional assay
# T1 sequence: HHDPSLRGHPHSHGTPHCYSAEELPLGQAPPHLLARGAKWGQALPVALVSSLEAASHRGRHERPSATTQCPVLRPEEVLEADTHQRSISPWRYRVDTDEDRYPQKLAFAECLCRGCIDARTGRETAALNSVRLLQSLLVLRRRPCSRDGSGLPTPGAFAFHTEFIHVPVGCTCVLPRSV
# cynomolgus IL-17C = biological target: T2, cynomolgus IL-17C (cynomolgus monkey, UniProt Q9P0M4 19-197 (human entry), limits assumed); experiment: cell-based or functional assay
# T2 chain: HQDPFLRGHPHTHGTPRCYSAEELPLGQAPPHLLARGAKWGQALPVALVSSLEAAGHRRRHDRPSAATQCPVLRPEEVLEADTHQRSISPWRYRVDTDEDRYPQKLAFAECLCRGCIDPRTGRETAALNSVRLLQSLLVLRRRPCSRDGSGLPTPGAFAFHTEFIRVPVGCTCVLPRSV
# mouse IL-17C [2] = biological target: T3, mouse IL-17C (mouse, UniProt Q8K4C5 17-194); experiment: cell-based or functional assay
# T3 sequence: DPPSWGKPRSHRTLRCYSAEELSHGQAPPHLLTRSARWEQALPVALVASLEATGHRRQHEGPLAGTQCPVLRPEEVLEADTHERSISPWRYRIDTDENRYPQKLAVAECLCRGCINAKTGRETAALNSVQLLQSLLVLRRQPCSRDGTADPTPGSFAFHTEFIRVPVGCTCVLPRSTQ
# human IL-17C [3] = biological target: T1, human IL-17C; experiment: cell-based or functional assay; remark: listed apart in the source
# human IL-17C [4] = biological target: T1, human IL-17C; experiment: SET (ECL based), IgG, bivalent affinity, hGT454
# Description: (§1) Additionally monovalent Fab and bivalent IgG affinity was determined by SET. Therefore purified Fabs and IgGs were titrated on human or mouse IL-17C for EC₅₀ determination. The results confirmed the proposed avidity effect exerted by IgG antibodies forming mainly class III complexes.
# (§2) Solution equilibrium titration (SET) was basically performed as described in the literature (Friquet et al., (1985) J. Immunol. Meth. 77: 305-19). In order to improve the sensitivity and accuracy of the SET method, it was transferred from classical ELISA to ECL based technology (Haenel et al. (2005) Anal Biochem. 339.1: 182-84).
# mouse IL-17C [5] = biological target: T3, mouse IL-17C; experiment: SET (ECL based), IgG, bivalent affinity, mGT454
# Description: as §1, §2
# human IL-17C [6] = biological target: T1, human IL-17C; experiment: MSD receptor binding inhibition: IgG with biotinylated IL-17C on coated IL17RE/Fc (head: hIL-17C-hIL17RE; text: mouse IL17RE/Fc)
# Description: Purified IL-17C specific IgGs were tested in mIL-17 RE interaction assay. Therefore MA6000 384 well plates (Meso Scale Discovery, MSD) were coated with 30 μl mouse IL17RE/Fc chimeric protein at 75 ng/ml in PBS at 4° C. overnight. The next day a serial antibody dilution (concentrations from 0.001 to 100 nM) were pre-incubated for 30 min at RT with an equal volume of biotinylated IL-17C. After blocking of plates for 1 h with 2.5% BSA in PBST, previously formed antibody-ligand complexes were added for 1 h to coated IL17RE/Fc and receptor binding was detected via Streptavidin-ECL using MSD Sector Imager.
# human IL-17C [7] = biological target: T1, human IL-17C; experiment: SET (ECL based), Fab, monovalent affinity, hGT454
# Description: as §1, §2
# mouse IL-17C [8] = biological target: T3, mouse IL-17C; experiment: SET (ECL based), Fab, monovalent affinity, mGT454
# Description: as §1, §2
Binder,NF-kB reporter gene assay (IgG) IC50 [pM] (human IL-17C [1]),NF-kB reporter gene assay (IgG) IC50 [pM] (cynomolgus IL-17C),NF-kB reporter gene assay (IgG) IC50 [pM] (mouse IL-17C [2]),NHEK assay IC50 [pM] (expression of DEFB4A) (human IL-17C [3]),EC50 (human IL-17C [4]),EC50 (mouse IL-17C [5]),IC50 (human IL-17C [6]),EC50 (human IL-17C [7]),EC50 (mouse IL-17C [8])
"mab_1 (IgG1) (antibody, V domains shown, Human IgG1 from the Ylanthia library, VH3-23 / Vlambda3-1, made in HKB11 cells) VH: not shown VL: SYELTQPPSVSVSPGQTASITCSGDKLGDKYAYWYQQKPGQSPVLVIYQDSKRPSGIPERFSGSNSGNTATLTISGTQAEDEADYYCQAWTFPLLTWVFGGGTKLTVLG",29 pM,24 pM,46 pM,415 pM,0.017 nM,0.15 nM,0.04 nM,–,–
"mab_1 Fab (Fab, V domains shown, His-tagged Fab made in E. coli; also called mab_1 (Fab format)) VH: not shown VL: SYELTQPPSVSVSPGQTASITCSGDKLGDKYAYWYQQKPGQSPVLVIYQDSKRPSGIPERFSGSNSGNTATLTISGTQAEDEADYYCQAWTFPLLTWVFGGGTKLTVLG",–,–,–,–,–,–,–,4.8 nM,72 nM
"mab_8 Fab (Fab, V domains shown, His-tagged Fab made in E. coli; also called mab_8 (Fab format)) VH: not shown VL: SYELTQPPSVSVSPGQTASITCSGDKLGDKYAYWYQQKPGQSPVLVIYQDSKRPSGIPERFSGSNSGNTATLTISGTQAEDEADYYCQVFTFPLVTTVFGGGTKLTVLG",–,–,–,–,–,–,–,2.7 nM,490 nM
"mab_8 (IgG1) (antibody, V domains shown, Human IgG1 from the Ylanthia library, VH3-23 / Vlambda3-1, made in HKB11 cells) VH: not shown VL: SYELTQPPSVSVSPGQTASITCSGDKLGDKYAYWYQQKPGQSPVLVIYQDSKRPSGIPERFSGSNSGNTATLTISGTQAEDEADYYCQVFTFPLVTTVFGGGTKLTVLG",42 pM,39 pM,1770 pM,93 pM,0.022 nM,3.35 nM,0.13 nM,–,–
